Source: patent US20060263802A1

B1: human monoclonal antibody CR57 (antibody, V domains shown)
VH: QVQLVQSGAEVKKPGSSVKVSCKASGGTFNRYTVNWVRQAPGQGLEWMGGIIPIFGTANYAQRFQGRLTITADESTSTAYMELSSLRSDDTAVYFCARENLDNSGTYYYFSGWFDPWGQGTLVTVSS
VL: QSALTQPRSVSGSPGQSVTISCTGTSSDIGGYNFVSWYQQHPGKAPKLMIYDATKRPSGVPDRFSGSKSGNTASLTISGLQAEDEADYYCCSYAGDYTPGVVFGGGTKLTVL
B2: human monoclonal antibody CRJA (antibody, V domains shown)
VH: EVQLLESGGGLVQPGGSLRLSCAASGFTFSNYAMSWVRQAPGKGLEWVSAISASGHSTYLADSVKGRFTISRDNSKNTLYLQMNSLRAEDTAVYYCAKDREVTMIVVLNGGFDYWGQGTRVTVSS
VL: EIVLTQSPATLSLSPGERATLACRASQTASRYLAWYQQKPGQAPRLLIYDTSNRATGIPARFSGSGSGTDFTLSISSLEPEDFAVYYCQQRFNWPWTFGQGTKVEFK

Key:
[1] = target: linear peptide … (rabies virus strain ERA); assay: PEPSCAN ELISA, linear peptide, antibody 10 µg/ml
[2] = target: linear peptide … (rabies virus strain ERA); assay: PEPSCAN ELISA, linear peptide, 10 µg/ml

Row | Binder | OD value [1] | OD [2]
1 | B1 | 364 | –
2 | B2 | 1030 | 96 OD
